Results published in patent US20230159624A1.

Experiments:
[1] = molecular target: MT1-MMP (R&D, 918-MP-010) (UniProt P50281); assay: enzyme inhibition kinetics with fluorescent substrate Mca-K-P-L-G-L-Dpa-A-R-NH2, LS-55 spectrofluorimeter
[2] = molecular target: MT1-MMP (R&D, 918-MP-010) (UniProt P50281); assay: enzyme inhibition kinetics with fluorescent substrate, LS-55 spectrofluorimeter

- Ki^app [1]: 178 nM
- Ki^app [2]: > 150 nM
Substance: Wild Type TIMP-1 (inhibitory domain) (from UniProt P01033 24-149)
